Series [1] has as its target T1, UPF1-HD (Homo sapiens, UniProt Q92900-2 295-914).
T1 sequence: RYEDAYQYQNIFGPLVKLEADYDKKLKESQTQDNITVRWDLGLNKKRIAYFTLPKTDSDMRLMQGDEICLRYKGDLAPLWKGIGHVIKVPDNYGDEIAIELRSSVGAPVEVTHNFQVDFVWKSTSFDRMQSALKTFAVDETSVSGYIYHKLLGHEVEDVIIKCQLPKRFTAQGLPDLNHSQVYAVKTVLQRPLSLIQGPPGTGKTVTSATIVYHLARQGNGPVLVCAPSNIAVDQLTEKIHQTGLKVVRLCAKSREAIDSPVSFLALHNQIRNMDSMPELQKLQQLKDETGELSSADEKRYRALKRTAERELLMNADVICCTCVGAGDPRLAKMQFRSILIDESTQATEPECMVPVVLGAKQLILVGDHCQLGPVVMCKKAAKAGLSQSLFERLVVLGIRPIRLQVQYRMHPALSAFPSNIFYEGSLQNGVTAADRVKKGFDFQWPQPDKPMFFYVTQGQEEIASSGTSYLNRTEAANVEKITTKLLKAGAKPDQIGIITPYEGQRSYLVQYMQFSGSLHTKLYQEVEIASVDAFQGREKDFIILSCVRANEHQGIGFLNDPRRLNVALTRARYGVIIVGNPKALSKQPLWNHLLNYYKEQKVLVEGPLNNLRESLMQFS
Description: pull-down; 200 mM NaCl; BLI: 20 mM HEPES pH 7.5, 150 mM K acetate, 2 mM Mg acetate, 1 mM DTT, 6.3% glycerol, 0.1% NP-40; EMSA: 20 mM MES pH 6.0, 150 mM K acetate, 2 mM DTT, 0.2 ug/ul BSA, 6% glycerol, 30 C; pull-down: BLI-like buffer, 30 C then 4 C, 200 mM NaCl wash. To be noted: protein: recombinant; tags: C-terminal His6 (CBP N-terminal and/or His6 per Methods); label: 3' biotin (BtnTg); single strand.

In series [2] the target is T1, UPF1-HD. Description: EMSA; UPF1-HD 0-10 nM, RNA 1 nM; BLI: 20 mM HEPES pH 7.5, 150 mM K acetate, 2 mM Mg acetate, 1 mM DTT, 6.3% glycerol, 0.1% NP-40; EMSA: 20 mM MES pH 6.0, 150 mM K acetate, 2 mM DTT, 0.2 ug/ul BSA, 6% glycerol, 30 C; pull-down: BLI-like buffer, 30 C then 4 C, 200 mM NaCl wash. To be noted: protein: recombinant; tags: C-terminal His6 (CBP N-terminal and/or His6 per Methods); label: 32P; single strand. On the technique in general: Mobility shift assays separate free from complexed probe on a gel.

As for CGUCCAUCUGGUCAUCUAGUGAUAUCAUCG (ssRNA) [30-mer ssRNA 3'-biotin (pull-down)], the binding result with UPF1-HD [1] is on record as “binds”.

Turning to CGUCCAUCUGGUCAUCUAGUGAUAUCAUCG (ssRNA) [30-mer ssRNA (EMSA)], the binding result with UPF1-HD [2] is reported as “binds”.
